In patent US20230265215A1 (OMEROS, published 2023):

Assays:
MASP-3 = target: T1, MASP-3 (human, UniProt P48740-2 20-728, limits assumed); assay: solid phase ELISA, immobilized protease, apparent KD
T1 construct: Species read from 'Recombinant human MASP-2 or C1r, C1s, CFD, MASP-1 and MASP-3'
T1 sequence (looked up): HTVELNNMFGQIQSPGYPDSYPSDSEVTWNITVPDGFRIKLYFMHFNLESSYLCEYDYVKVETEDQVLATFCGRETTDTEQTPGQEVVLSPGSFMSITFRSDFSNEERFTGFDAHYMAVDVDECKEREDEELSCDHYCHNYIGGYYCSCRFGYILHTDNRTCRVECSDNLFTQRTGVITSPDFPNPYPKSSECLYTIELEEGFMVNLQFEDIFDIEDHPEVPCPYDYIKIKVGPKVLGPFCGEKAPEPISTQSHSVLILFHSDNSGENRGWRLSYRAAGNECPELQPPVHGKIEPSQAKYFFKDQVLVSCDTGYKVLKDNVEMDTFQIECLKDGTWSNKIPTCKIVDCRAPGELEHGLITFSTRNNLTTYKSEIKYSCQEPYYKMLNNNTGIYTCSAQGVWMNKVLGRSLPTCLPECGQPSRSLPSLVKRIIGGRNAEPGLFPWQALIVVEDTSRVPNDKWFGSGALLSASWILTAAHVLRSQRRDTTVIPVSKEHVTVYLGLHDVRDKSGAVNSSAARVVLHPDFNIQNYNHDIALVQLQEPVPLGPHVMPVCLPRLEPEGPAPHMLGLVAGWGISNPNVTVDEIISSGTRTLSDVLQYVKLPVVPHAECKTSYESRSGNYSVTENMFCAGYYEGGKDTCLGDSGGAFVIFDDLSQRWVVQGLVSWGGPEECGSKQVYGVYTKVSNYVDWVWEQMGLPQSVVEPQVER
Source text: (§1) The apparent dissociation constant (KD) was estimated by nonlinear regression using a 4-parameter logistic model.

C1r = target: T2, C1r (human, UniProt P00736 18-705, limits assumed); assay: as above
T2 construct: Species read from 'Recombinant human MASP-2 or C1r, C1s, CFD, MASP-1 and MASP-3'
T2 sequence (looked up): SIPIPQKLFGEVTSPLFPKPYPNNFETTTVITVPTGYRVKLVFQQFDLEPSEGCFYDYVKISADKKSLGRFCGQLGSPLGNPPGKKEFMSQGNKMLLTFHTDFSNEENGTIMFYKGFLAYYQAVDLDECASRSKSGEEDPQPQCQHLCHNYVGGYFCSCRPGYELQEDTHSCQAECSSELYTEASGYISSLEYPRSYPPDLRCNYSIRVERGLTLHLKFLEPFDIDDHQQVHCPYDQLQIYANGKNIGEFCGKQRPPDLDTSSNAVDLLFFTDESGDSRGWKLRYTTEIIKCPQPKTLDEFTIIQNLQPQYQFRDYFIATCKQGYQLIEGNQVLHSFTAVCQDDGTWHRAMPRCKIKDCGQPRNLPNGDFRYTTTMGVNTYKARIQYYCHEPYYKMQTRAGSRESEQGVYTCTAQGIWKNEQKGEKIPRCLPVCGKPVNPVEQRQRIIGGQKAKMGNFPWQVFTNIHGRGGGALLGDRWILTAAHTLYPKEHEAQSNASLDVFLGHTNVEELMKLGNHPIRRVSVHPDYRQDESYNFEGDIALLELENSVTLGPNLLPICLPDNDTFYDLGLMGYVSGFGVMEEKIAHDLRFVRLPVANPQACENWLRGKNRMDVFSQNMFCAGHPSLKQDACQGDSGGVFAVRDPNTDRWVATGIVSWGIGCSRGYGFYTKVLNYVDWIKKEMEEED
Source text: as §1

C1s = target: T3, C1s (human, UniProt P09871 16-688, limits assumed); assay: as above
T3 construct: Species read from 'Recombinant human MASP-2 or C1r, C1s, CFD, MASP-1 and MASP-3'
T3 sequence (looked up): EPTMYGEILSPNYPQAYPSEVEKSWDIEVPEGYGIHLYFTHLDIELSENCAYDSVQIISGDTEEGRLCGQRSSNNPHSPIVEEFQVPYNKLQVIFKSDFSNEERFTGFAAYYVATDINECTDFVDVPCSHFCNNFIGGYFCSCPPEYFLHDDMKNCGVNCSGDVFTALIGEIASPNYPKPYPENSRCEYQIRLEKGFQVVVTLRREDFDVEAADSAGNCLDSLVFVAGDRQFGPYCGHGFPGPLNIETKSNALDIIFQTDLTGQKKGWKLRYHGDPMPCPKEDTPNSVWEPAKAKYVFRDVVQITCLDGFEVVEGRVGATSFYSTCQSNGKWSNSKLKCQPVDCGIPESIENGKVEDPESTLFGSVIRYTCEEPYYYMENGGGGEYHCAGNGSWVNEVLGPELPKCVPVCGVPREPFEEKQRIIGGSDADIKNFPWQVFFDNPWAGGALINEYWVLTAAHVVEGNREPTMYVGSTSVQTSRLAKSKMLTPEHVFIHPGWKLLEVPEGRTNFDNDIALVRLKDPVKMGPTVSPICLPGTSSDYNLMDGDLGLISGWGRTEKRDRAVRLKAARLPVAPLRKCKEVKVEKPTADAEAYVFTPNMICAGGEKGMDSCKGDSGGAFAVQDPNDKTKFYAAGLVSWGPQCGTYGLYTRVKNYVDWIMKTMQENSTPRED
Source text: as §1

CFD = target: T4, CFD (human, UniProt P00746 26-253, limits assumed); assay: as above
T4 construct: Species read from 'Recombinant human MASP-2 or C1r, C1s, CFD, MASP-1 and MASP-3'; also called factor D; complement factor D
Source text: as §1

[1] = target: T5, human MASP-2 (CCP1-CCP2-SP fragment) (human, UniProt O00187 287-686, limits assumed); assay: solid phase ELISA, plate coated with human MASP-2 (CCP1-CCP2-SP fragment), bound mAb detected with goat anti-human IgG-HRP, OD450
T5 construct: also called human MASP-2 (CCP1/2/SP fragment); hMASP-2-CCP1-CCP2-SP
Procedure: To measure binding of the 26 purified recombinant MASP-2 antibodies to human MASP-2 (CCP1-CCP2-SP fragment), a solid phase ELISA assay was carried out as follows. A MaxiSorp ELISA plate was coated with human MASP-2 (CCP1/2/SP fragment) at 1.0 μg/mL in carbonate/bi-carbonate buffer overnight at 4° C. […] The plate was washed (PBS-T, 0.05%) and a detection antibody was added (goat anti-human IgG-HRP) for one hour at room temperature. After another wash (PBS-T, 0.05%) the plate was developed (5 minutes) with OPT EIA TMB (BD Biosciences #555214). Absorbance reading at A450 was measured using the Spectramax M5e plate reader.
A solid phase ELISA assay was carried out to measure binding of the three selected MASP-2 inhibitory antibodies to human MASP-2 (CCP1-CCP2-SP fragment), as described in Example 1.

T5 sequence (O00187 287-686 limits assumed): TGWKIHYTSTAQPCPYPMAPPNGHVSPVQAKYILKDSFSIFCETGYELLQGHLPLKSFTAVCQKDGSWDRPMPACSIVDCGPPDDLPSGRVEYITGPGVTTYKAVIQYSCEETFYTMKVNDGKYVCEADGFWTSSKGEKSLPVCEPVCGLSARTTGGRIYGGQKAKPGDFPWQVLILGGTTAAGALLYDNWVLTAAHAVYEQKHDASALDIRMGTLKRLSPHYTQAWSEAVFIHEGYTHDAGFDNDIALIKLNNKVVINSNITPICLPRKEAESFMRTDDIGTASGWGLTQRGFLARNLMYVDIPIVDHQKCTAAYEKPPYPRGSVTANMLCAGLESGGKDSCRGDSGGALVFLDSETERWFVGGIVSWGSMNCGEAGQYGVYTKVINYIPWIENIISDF
T4 sequence (P00746 26-253 limits assumed): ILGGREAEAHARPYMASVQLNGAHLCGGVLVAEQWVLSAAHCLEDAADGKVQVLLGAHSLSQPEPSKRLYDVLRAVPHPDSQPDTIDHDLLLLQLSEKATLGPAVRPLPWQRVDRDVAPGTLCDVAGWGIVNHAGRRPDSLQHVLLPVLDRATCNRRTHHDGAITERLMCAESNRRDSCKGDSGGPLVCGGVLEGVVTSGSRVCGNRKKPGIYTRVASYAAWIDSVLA

Kd (MASP-3): > 100 µg/mL | Kd (C1r): > 100 µg/mL | Kd (C1s): > 100 µg/mL | Kd (CFD): > 100 µg/mL | EC50 (read off the curve) [1]: ~0.2 nM
B1: mAb OMS858 (humanized anti-MASP-2 antibody) (antibody, V domains shown)
VH: QVQLVQSGAEVKKPGASVKVSCKASGYTFTNHHMHWLRQAPGQGLEWIGDIDASDSETHYIEKFKDRATLTIDKSSSTAYMELSSLRSEDTAVYYCARGDITTTLRYFDVWGQGTLVTVSS
VL: DIQLTQSPSSLSASVGDRVTITCSASSSVRYMYWYQQKPGKAPKLLIYDTSNLASGVPSRFSGSGSGTDNTLTISSLQPEDFATYYCQQWSSYPLTFGQGTKVEIKR
notes: also called antibody OMS858; biotinylated OMS858
